{"source": "IntAct's records for PubMed 11729193", "parents": {"B1": {"name": "Cell death abnormality protein 1 (Caenorhabditis elegans), Q9XWD6 (parent)", "chain": "MRLILLVLLATWQVVVDTRAPTFPDKLTQQLQQQGTTEPQGDHVCTVKTIVDDYELKKVIHTVVYNDTEQCLNPLTGFQCTVEKRGQKASYQRQLVKKEKYVKQCCDGYYQTKDHFCLPDCNPPCKKGKCIEPGKCECDPGYGGKYCASSCSVGTWGLGCSKSCDCENGANCDPELGTCICTSGFQGERCEKPCPDNKWGPNCVKSCPCQNGGKCNKEGKCVCSDGWGGEFCLNKCEEGKFGAECKFECNCQNGATCDNTNGKCICKSGYHGALCENECSVGFFGSGCTQKCDCLNNQNCDSSSGECKCIGWTGKHCDIGCSRGRFGLQCKQNCTCPGLEFSDSNASCDAKTGQCQCESGYKGPKCDERKCDAEQYGADCSKTCTCVRENTLMCAPNTGFCRCKPGFYGDNCELACSKDSYGPNCEKQAMCDWNHASECNPETGSCVCKPGRTGKNCSEPCPLDFYGPNCAHQCQCNQRGVGCDGADGKCQCDRGWTGHRCEHHCPADTFGANCEKRCKCPKGIGCDPITGECTCPAGLQGANCDIGCPEGSYGPGCKLHCKCVNGKCDKETGECTCQPGFFGSDCSTTCSKGKYGESCELSCPCSDASCSKQTGKCLCPLGTKGVSCDQKCDPNTFGFLCQETVTPSPCASTDPKNGVCLSCPPGSSGIHCEHNCPAGSYGDGCQQVCSCADGHGCDPTTGECICEPGYHGKTCSEKCPDGKYGYGCALDCPKCASGSTCDHINGLCICPAGLEGALCTRPCSAGFWGNGCRQVCRCTSEYKQCNAQTGECSCPAGFQGDRCDKPCEDGYYGPDCIKKCKCQGTATSSCNRVSGACHCHPGFTGEFCHALCPESTFGLKCSKECPKDGCGDGYECDAAIGCCHVDQMSCGKAKQEFEALNGAGRSTGLTWFFVLLIVALCGGLGLIALFYRNKYQKEKDPDMPTVSFHKAPNNDEGREFQNPLYSRQSVFPDSDAFSSENNGNHQGGPPNGLLTLEEEELENKKIHGRSAAGRGNNDYASLDEVAGEGSSSSASASASRRGLNSSEQSRRPLLEEHDEEEFDEPHENSISPAHAVTTSNHNENPYADISSPDPVTQNSANKKRAQDNLYT", "partner": "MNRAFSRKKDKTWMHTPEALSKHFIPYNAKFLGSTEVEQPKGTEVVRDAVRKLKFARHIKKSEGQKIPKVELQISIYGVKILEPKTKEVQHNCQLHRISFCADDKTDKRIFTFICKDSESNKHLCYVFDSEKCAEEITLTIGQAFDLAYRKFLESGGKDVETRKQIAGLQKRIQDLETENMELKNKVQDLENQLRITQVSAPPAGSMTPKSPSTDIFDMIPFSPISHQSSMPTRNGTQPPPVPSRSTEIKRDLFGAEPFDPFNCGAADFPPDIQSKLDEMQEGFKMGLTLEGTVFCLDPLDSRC"}, "B2": {"name": "Cell death abnormality protein 1 (Caenorhabditis elegans), Q9XWD6 (parent)", "chain": "B1 chain", "partner": "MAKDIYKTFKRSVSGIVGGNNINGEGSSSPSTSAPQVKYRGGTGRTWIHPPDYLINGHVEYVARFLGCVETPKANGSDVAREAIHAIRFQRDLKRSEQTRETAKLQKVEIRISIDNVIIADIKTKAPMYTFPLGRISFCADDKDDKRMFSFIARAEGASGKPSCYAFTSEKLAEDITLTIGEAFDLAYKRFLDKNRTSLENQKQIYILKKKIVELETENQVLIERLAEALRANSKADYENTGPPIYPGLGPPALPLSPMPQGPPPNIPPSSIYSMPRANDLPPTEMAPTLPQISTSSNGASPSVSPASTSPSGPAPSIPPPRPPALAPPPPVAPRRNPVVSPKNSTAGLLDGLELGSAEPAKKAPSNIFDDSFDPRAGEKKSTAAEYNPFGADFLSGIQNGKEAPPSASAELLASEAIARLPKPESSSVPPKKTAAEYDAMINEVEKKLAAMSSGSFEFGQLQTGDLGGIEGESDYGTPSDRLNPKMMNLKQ"}}}
{"variants_of": "B1", "details": "with gulp1_human GULP1, Q9UBP9"}
{"variant": "N962A", "effect of a mutation on the interaction": "disrupting interaction strength"}
{"variants_of": "B2", "details": "with ced6_caeel ced-6, O76337"}
{"variant": "N962A", "effect of a mutation on the interaction": "disrupting interaction strength"}
